In patent publication US20060253917A1 (published 2006):
Blank lines part the entries; values can stand above or below the binder they belong to. Ends that are not written are not given here.

What was measured:
OsRAP1B aa 30-180 = target: T1, OsRAP1B aa 30-180 (Oryza sativa, UniProt Q10CQ1 30-180); assay: Y2H; output trait library
T1 construct: bait, Gal4 DBD fusion; also called PN20232
T1 sequence: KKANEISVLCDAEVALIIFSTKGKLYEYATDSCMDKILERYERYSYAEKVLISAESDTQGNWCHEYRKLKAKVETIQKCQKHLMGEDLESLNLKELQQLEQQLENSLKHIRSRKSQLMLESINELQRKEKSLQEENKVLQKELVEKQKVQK
Method in brief: (§1)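 Protein-protein interactions were detected with an automated, high-throughput yeast two-hybrid assay provided by Myriad Genetics Inc. (Salt Lake City, Utah). A bait clone encoding a defined amino-acid fragment of a rice protein was screened against a rice prey library, either the input trait or the output trait library. Prey clones were retrieved, and their encoding sequences were compared by BLAST against databases to identify the interacting proteins.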

OsPP2A-2 aa 150-308 = target: T2, OsPP2A-2 aa 150-308 (Oryza sativa, UniProt A2XN40 150-307); assay: Y2H; output trait library
T2 construct: bait, Gal4 DBD fusion; also called PN20254
T2 sequence: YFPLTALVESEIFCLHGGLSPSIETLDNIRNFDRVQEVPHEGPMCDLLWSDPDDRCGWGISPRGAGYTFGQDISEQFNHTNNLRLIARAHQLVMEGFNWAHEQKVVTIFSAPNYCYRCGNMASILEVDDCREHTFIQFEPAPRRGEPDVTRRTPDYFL

Os005750-3115 aa 50-150 = target: T3, Os005750-3115 aa 50-150 (Oryza sativa, UniProt Q6IVC3 50-150); assay: Y2H; output trait library
T3 construct: bait, Gal4 DBD fusion; also called PN20466; O. sativa bZIP Transcription Factor
T3 sequence: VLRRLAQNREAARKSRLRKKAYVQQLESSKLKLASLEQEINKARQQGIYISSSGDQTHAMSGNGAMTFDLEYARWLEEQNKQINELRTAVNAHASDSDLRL
Method in brief: as §1

OsCAA90866 aa 100-250 = target: T4, OsCAA90866 aa 100-250 (Oryza sativa); assay: Y2H; input trait library
T4 construct: bait, Gal4 DBD fusion; also called PN20311; O. sativa Chilling-Inducible Protein CAA90866
T4 chain: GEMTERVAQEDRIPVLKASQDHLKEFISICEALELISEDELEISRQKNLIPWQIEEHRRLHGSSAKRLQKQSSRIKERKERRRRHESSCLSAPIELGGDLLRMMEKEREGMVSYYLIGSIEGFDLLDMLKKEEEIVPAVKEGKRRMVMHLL
Method in brief: as §1

OsCYCOS2 aa 50-233 = target: T5, OsCYCOS2 aa 50-233 (Oryza sativa, UniProt A2YH60 50-233); assay: Y2H; input trait library
T5 construct: bait, Gal4 DBD fusion; also called PN20257; O. sativa Cyclin OsCYCOS2
T5 chain: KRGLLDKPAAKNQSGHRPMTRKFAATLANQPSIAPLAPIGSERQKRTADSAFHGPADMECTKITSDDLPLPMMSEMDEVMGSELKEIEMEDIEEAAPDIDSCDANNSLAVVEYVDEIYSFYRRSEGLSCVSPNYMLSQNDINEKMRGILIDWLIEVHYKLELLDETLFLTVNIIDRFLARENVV
Method in brief: as §1

Os018989-4003 aa 90-220 = target: T6, Os018989-4003 aa 90-220 (Oryza sativa); assay: Y2H; output trait library
T6 construct: bait, Gal4 DBD fusion; also called PN21044
T6 chain: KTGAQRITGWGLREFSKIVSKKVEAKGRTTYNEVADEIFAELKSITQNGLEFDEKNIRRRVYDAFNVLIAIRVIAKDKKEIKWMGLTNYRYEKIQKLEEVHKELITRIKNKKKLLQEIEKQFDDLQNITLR
Method in brief: as §1

OsMADS5 aa 50-160 = target: T7, OsMADS5 aa 50-160 (Oryza sativa, UniProt A2Y9P0 50-160); assay: Y2H; output trait library
T7 construct: bait, Gal4 DBD fusion; also called PN20770
T7 sequence: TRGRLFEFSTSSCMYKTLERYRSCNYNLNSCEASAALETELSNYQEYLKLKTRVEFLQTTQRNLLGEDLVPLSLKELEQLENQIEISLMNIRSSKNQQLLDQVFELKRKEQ
Method in brief: as §1

binding result (OsRAP1B aa 30-180): binds
B1: OsMADS8 aa 74-183 (other)
chain: SYGGPDTAIQNKENELVQSSRNEYLKLKARVENLQRTQRNLLGEDLGTLGIKELEQLEKQLDSSLRHIRSTRTQHMLDQLTDLQRREQMLCEANKCLRRKLEESNQLHGQ
notes: prey, AD fusion; also called PN20778

binding result (OsPP2A-2 aa 150-308): binds
B2: OsPN24162 aa 28-164 (other)
chain: QKLTVSTVSSSGVGLTSTAVKKGGLYTLDVSSVYKYKSTLVDVKVDTESNISTTLTVFDVLPSTKLVTSVKLPDYNSGKVEMQYFHENASFATAVGMKPSPVVEFSGTAGAQGLAFGAEAGFDTATGKFTKYSAAIG
notes: prey, AD fusion; also called Novel Protein PN24162, Porin-like, Voltage-Dependent Anion Channel Protein

binding result (Os005750-3115 aa 50-150): binds
B3: OsAAG13633 aa 612-738 (other)
chain: LSSQVSSAFSANEQLLMQARKEAAELQLQKGQLEELLQKAQEDLGSIQEQHRVKVQQLLTLVDFKSKETDRLVMELKSKSDEFQNQKRCNEAKLSVLSEEIDQLKAKIENLSNERDNLFEENEQKDK
notes: prey, AD fusion; also called PN25701

binding result (OsCAA90866 aa 100-250): binds
B4: OsPN23225 aa 639-792 (other)
chain: FGIRILDEAQQCIEELQCPEYYSEIVKEAINLALDKGPNFIDPLVRLLEHLHTKKIFKTEDLKTGCLLYAALLEDIGIDLPLAPALFGEVVARLSLSCSLSFEVVEEILKAVEDTYFRKGIFDAVMKTMGGNSSGQAILSSHAVVIDACNKLLK
notes: prey, AD fusion; also called Novel Protein PN23225, Similar to Tritticum aestivum Initiation Factor (iso)4f p82 Subunit

binding result (OsCAA90866 aa 100-250): binds
B5: OsPN23045 aa 240-287 (other)
chain: ILSKLVQAKELLKEYVEREKKKREERSETPKSNEAVTKFDGSLNSMRH
modifications: not fully specified
notes: prey, AD fusion; also called Novel Protein PN23045

binding result (OsCAA90866 aa 100-250): binds
B6: OsAAG46136 aa 92-222 (other)
chain: FGVNSGTTRFALENQAINEATFRCPDELGWKPQRAPIVSSDGSISNLRKTTVPVNEVNKSLQQMGFDVAPSDDAGRFVCNYVYYQSLRFAEQRGIKSLFVHFPLFTTISEEVQMNFVATLLEVLASQNYAQ
notes: prey, AD fusion; also called PN23186; O. sativa Putative Pyrrolidone Carboxyl Peptidase

binding result (OsCYCOS2 aa 50-233): binds
B7: OsPN23274 aa 79-210 (other)
chain: GELPRSASLCLREVLLVLQRFKAIVADCSARSRMRLLLESDEMEAELRELNHDLATLLDLLPVVELGLADDVLDVLALASRQCRRCSPAPESEEALKASVLSLIQEIEREIVPERERLEEILVEVGINDPAS
notes: prey, AD fusion; also called Novel Protein PN23274, Similar to A. thaliana ARM Repeat-Containing Protein

binding result (OsCYCOS2 aa 50-233): binds
B8: PN23416 aa 130-176 (other)
chain: YFEKQRAMNQVRQRVFQQAVQGALGTLNSCLNTELHFRTIRANISIL
modifications: not fully specified
notes: prey, AD fusion; also called Chloroplast ATPase I Subunit

binding result (Os018989-4003 aa 90-220): binds
B9: OsPN22824 aa 393-494 (other)
chain: ASLVEQDLKERAAREARMGEQLRASEAARETLEAEMRRLRVQTEQWRKAAEAAPPVIGGDAHFVGHNGNGWGSPATMPDDCDDEGFGGKRKGAGIRMLGDLW
notes: prey, AD fusion; also called Novel Protein PN22824, Myosin heavy chain

binding result (Os005750-3115 aa 50-150): binds
B10: OsAAG13633 aa 528-789 (other)
chain: LREQLRMQYECSAHLSIISDLEANVESLENELQEQSKRLEADIQEVMRAKVEQEQRAIKAEESLRKARWNNATTAERLQEEFKMLSSQVSSAFSANEQLLMQARKEAAELQLQKGQLEELLQKAQEDLGSIQEQHRVKVQQLLTLVDFKSKETDRLVMELKSKSDEFQNQKRCNEAKLSVLSEEIDQLKAKIENLSNERDNLFEENEQKDKELAANCQKDMFLQDRDAEIALLNKELASIKDQVQTYLEEINTLKSSKNEKE
notes: as for B3

binding result (Os018989-4003 aa 90-220): binds
B11: OsAAK72891 aa 339-651 (other)
chain: ELDLQEKTEELFKFKREKGLLTLKNDVEFEPLRKKIPQIISRMDQIISKNIKMPSLCMTNDGLDERCISAKRIDSLYYENQHLRGLLADNMKDVKELSSQLSEASKEMSIQLSSEDDLLRQIAKIKEEYEDLQIEAGVRDGVYQTITRKLLDDSMNSMHDAATNFSTELSSLEAMISEKEKALCLSNEENRMLKEKIAELEQCLIQDKQEDPEVIKQESTEIILRDIEVAPHISPRRSHETPKQDMQYDELVKLNSSLEIASAALKEVENKNIDYNGIFTKNEQEKQLECILISIMKLSKEFVEIEQKLSVER
notes: prey, AD fusion; also called PN26317

binding result (Os018989-4003 aa 90-220): binds
B12: OsE2F1 aa 191-436 (other)
chain: LQAEVENLSLKEQALDERISDMREKLRGLTEDENNQRWLYVTEDDIKGLPCFQNETLIAIKAPHGTTLEVPDPDEAGDYLQRRYRIVLRSTMGPIDVYLVSQFDEKFEDLGGGATPSGHANVPKHQPTEVFNTTNAGVGQCSNSVAVDNNIQHSQTIPQDPSASHDFGGMTRIIPSDIDTDADYWLISEGDVSITDMWKTAPDVQWDESLDTDVFLSEDVRTPSSHNQQPSAVGGPQMQVSDMHKP
notes: prey, AD fusion; also called PN19758

binding result (OsMADS5 aa 50-160): binds
B13: OsMADS13 aa 69-230 (other)
chain: RYKKAHACGSTSGAPLIEVNAQQYYQQESAKLRHQIQMLQNTNKHLVGDNVSNLSLKELKQLESRLEKGIAKIRARKNELLASEINYMAKREIELQNDNMDLRTKIAEEEQQLQQVTVARSAAMELQAAAAAQQQQQNPFAVAAAQLDMKCFFPLNLFEAAA
notes: prey, AD fusion; also called PN20668

binding result (OsMADS5 aa 50-160): binds
B14: OsBAB56078 aa 51-155 (other)
chain: PGRFVRKCEKTEQLLRDCVGSDIEALEKGLFGSIGSFLDDAERMTNDFLKSFGVPSINERESSSFDGQPTGRHIGGQPAGRHIEEGTAKDTKQNDYAEFSSKITD
notes: prey, AD fusion; also called PN28517; O. sativa Hypothetical protein BAB56078

binding result (OsMADS5 aa 50-160): binds
B15: Os000564-1102 aa 72-172 (other)
chain: SIEQKEESRGNEDRVTLIKDYRGKIETELTKICDGILKLLESHLVPSSTAPESKVFYLKMKGDYYRYLAEFKTGAERKDAAENTMVAYKAAQDIALAELPP
notes: prey, AD fusion; also called PN20072; Hypothetical protein 000564-1102

binding result (OsPP2A-2 aa 150-308): binds
B16: OsCAA33838 aa 5-155 (other)
chain: VFSRFSIYFCVLLLCHGSMAQLFNPSTNPWHSPRQGSFRECRFDRLQAFEPLRKVRSEAGVTEYFDEKNELFQCTGTFVIRRVIQPQGLLVPRYTNIPGVVYIIQGRGSMGLTFPGCPATYQQQFQQFSSQGQSQSQKFRDEHQKIHQFRQ
notes: prey, AD fusion; also called PN24775; O. sativa Glutelin CAA33838

binding result (OsPP2A-2 aa 150-308): binds
B17: Os011994-D16 aa 99-368 (other)
chain: FGPSFGGGGSSRGRRQRRGEDVIHPLKVSLEDLYNGTSKKLSLSRNVLCAKCKGKGSKSGASMRCPGCQGSGMKITIRQLGPSMIQQMQQPCNECKGTGESINEKDRCPGCKGEKVIQEKKVLEVHVEKGMQHNQKITFPGEADEAPDTVTGDIVFVLQQKDHSKFKRKGDDLFYEHTLSLTEALCGFQFVLTHLDNRQLLIKSNPGEVVKPDQFKAINDEGMPMYQRPFMKGKLYIHFTVEFPDSLAPEQCKALEAVLPPKPASQLTEM
notes: prey, AD fusion; also called PN20618; Hypothetical Protein 011994-D16, Similar to Z. mays DnaJ protein

binding result (OsCYCOS2 aa 50-233): binds
B18: PN23297 aa 980-1160 (other)
chain: LRLTLERRLRAAGEEAKSVEILKRDKLIESLSAKCAAAKSAAQSEHDKNLLLQRQLDDSLREITMLRSSKIMTAEAERENSNLKNLVESLSKNNSSLEYELTSARKGSDATMKKLKDVEGKCNHLQQNLDKLQEKLTNMENENHVLRQKALNMSPLNNMPMTTKAFPQKFATPIGLPNGEQ
notes: prey, AD fusion; also called 15451591; O. sativa Putative Myosin Heavy Chain

binding result (OsRAP1B aa 30-180): binds
B19: OsMADS5 aa 121-225 (other)
chain: LSLKELEQLENQIEISLMNIRSSKNQQLLDQVFELKRKEQQLQDANKDLKRKIQETSGENMLHISCQDVGPSGHASEANQEFLHHAICDPSLHIGYQAYMDHLNQ
notes: prey, AD fusion; also called PN20770

binding result (Os005750-3115 aa 50-150): binds
B20: OsAAG13633 aa 538-738 (other)
chain: CSAHLSIISDLEANVESLENELQEQSKRLEADIQEVMRAKVEQEQRAIKAEESLRKARWNNATTAERLQEEFKMLSSQVSSAFSANEQLLMQARKEAAELQLQKGQLEELLQKAQEDLGSIQEQHRVKVQQLLTLVDFKSKETDRLVMELKSKSDEFQNQKRCNEAKLSVLSEEIDQLKAKIENLSNERDNLFEENEQKDK
notes: as for B3
